Experimental data from IntAct's records for PubMed 15652484.

Target: erp44_mouse Erp44 (UniProt Q9D1Q6)
Sequence (Q9D1Q6 whole entry): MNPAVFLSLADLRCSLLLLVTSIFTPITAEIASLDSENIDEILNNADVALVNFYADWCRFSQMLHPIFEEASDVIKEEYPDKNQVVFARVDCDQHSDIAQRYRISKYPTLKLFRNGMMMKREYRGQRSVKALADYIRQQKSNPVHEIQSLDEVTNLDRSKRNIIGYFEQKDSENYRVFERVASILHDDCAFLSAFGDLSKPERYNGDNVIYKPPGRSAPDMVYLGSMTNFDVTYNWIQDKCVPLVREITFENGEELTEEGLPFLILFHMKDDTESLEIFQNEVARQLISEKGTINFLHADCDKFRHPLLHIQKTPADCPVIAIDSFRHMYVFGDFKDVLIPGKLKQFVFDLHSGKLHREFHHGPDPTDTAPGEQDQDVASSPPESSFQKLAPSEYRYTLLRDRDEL

Chain of Inositol 1,4,5-trisphosphate-gated calcium channel ITPR1 (Mus musculus), P11881 C2504S (P11881 whole entry C2504S): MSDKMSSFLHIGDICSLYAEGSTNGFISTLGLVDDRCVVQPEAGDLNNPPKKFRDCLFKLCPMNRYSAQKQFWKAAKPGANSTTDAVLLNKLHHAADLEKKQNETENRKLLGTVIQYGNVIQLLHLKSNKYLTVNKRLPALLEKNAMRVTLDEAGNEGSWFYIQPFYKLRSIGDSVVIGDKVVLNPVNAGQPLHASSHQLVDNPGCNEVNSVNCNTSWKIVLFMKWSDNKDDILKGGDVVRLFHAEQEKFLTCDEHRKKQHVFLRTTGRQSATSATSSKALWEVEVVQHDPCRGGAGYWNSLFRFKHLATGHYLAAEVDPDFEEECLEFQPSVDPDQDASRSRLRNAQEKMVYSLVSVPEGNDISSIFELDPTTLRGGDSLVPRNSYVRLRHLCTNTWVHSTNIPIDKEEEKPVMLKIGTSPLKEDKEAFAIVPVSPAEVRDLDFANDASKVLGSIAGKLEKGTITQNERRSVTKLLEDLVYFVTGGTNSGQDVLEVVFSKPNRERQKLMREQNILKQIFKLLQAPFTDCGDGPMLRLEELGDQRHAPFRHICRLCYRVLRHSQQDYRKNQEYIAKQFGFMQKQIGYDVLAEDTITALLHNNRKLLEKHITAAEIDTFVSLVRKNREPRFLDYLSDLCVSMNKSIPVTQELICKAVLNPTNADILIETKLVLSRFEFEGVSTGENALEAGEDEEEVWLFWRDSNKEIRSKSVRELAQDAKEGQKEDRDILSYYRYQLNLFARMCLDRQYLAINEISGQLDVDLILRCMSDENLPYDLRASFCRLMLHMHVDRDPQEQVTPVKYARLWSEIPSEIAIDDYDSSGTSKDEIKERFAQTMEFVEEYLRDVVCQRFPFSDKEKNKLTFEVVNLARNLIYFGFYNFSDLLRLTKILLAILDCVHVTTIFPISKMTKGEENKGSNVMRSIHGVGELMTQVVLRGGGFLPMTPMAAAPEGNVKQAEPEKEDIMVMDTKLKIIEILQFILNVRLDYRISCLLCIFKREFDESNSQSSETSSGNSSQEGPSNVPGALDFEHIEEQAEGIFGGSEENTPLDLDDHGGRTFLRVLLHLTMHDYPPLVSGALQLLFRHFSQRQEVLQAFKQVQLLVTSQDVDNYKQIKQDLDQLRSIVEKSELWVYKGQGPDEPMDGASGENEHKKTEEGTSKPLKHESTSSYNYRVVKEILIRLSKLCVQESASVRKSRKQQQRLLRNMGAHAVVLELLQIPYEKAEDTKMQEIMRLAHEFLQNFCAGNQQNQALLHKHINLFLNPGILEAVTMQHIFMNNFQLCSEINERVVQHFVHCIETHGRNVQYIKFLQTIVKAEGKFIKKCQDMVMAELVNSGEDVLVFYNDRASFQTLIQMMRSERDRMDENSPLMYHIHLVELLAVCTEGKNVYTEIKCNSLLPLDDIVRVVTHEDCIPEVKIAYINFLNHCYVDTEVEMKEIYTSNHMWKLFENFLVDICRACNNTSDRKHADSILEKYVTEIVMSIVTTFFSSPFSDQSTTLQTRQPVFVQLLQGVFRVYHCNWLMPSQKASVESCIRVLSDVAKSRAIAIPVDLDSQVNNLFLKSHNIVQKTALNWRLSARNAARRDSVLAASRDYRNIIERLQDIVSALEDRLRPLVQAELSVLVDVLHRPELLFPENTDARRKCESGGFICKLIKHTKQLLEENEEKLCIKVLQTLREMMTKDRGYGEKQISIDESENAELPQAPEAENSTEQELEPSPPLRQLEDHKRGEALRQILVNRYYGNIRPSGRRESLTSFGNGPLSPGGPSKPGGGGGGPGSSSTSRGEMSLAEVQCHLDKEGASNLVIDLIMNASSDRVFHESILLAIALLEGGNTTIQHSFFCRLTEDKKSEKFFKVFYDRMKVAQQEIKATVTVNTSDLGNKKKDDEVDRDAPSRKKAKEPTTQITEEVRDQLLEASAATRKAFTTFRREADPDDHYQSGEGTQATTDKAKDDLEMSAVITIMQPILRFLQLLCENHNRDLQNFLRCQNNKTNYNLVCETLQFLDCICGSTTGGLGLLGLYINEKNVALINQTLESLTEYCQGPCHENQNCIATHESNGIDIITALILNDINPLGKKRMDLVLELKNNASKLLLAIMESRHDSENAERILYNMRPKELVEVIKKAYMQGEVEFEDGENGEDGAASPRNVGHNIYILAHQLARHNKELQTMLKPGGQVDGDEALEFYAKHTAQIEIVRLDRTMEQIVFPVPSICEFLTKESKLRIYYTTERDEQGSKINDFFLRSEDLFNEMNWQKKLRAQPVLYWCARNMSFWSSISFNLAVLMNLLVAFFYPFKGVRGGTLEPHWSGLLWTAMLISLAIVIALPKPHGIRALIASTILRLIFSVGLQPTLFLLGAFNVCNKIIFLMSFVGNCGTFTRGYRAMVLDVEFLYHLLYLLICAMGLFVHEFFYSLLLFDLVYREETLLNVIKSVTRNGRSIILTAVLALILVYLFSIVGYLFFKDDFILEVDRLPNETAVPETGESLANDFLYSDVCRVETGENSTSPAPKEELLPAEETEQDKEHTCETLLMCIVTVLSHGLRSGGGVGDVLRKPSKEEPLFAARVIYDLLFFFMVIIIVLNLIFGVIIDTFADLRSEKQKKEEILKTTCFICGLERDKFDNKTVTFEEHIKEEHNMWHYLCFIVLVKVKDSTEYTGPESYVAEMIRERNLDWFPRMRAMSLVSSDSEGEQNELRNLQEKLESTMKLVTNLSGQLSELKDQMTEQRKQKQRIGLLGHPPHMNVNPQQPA

| Substance | effect of a mutation on the interaction |
| --- | --- |
| Inositol 1,4,5-trisphosphate-gated calcium channel ITPR1 (Mus musculus), P11881 C2496S | decreasing interaction |
| Inositol 1,4,5-trisphosphate-gated calcium channel ITPR1 (Mus musculus), P11881 C2504S | decreasing interaction |
